“And” between values parts separate entries of the source, which are not always exact repeats. Equal entries are not always repeated.
System: CC1(C)C(C=C(Cl)Cl)C1C(=O)OCc1cccc(Oc2ccccc2)c1
Experiment: purified protein
Details: analogous to ρ-nitrophenyl ester assay (50 mM sodium phosphate pH 7.0, 30°C)

Substance: Pye3 (pyrethroid-hydrolyzing esterase) (uncultured prokaryote)
- Km: 0.10 µM and 0.18 µM

— paper PMC2657102, “Molecular cloning and characterization of a novel pyrethroid-hydrolyzing esterase originating from the Metagenome” (Microbial Cell Factories, 2008)
